Assay results as given in patent publication US20220025021A1 (BETH ISRAEL DEACONESS MEDICAL CENTER, published 2022).
Substitutions are numbered along the chain they refer to.

B1: MS-73 (antibody)
VH: not shown
VL: DFVLTQSPHSLSVTPGESASISCKSSHSLIHGDRNNYLAWYVQKPGRSPQLLIYLASSRASGVPDRFSGSGSDKDFTLKISRVEAEDVGTYYCMQGRESPWTFGQGTKVDIKRTVAAPSVFIFPPSDEQLKSGTASVVCLLNNFYPREAKVQWKVDNALQSGNSQESVTEQDSKDSTYSLSSTLTLSKADYEKHKVYACEVTHQGLSSPVTKSFNRGEC
B2: MS-86 (antibody)
VH: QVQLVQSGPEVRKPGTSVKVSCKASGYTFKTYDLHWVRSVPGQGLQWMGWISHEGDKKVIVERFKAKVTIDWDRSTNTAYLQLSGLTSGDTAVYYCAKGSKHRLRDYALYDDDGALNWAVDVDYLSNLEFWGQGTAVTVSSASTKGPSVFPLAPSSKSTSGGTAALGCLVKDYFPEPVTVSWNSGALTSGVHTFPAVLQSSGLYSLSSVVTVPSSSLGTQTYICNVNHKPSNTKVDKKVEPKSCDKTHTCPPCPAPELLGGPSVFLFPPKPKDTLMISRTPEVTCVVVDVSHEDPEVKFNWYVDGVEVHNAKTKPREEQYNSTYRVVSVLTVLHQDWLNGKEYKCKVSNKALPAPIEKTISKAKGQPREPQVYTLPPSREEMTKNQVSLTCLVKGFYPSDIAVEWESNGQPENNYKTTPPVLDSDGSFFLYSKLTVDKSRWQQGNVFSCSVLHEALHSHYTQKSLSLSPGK
VL: B1 VL with A85T
B3: MS-74 (antibody, V domains shown)
VH: QVQLVQSGPEVRKPGTSVKVSCKAPGNTLKTYDLHWVRSVPGQGLQWMGWISHEGDKKVIVERFKAKVTIDWDRSTNTAYLQLSGLTSGDTAVYYCAKGSKHRLRDYALYDDDGALNWAVDVDYLSNLEFWGQGTAVTVSS
VL: DFVLTQSPHSLSVTPGESASISCKSSHSLIHGDRNNYLAWYVQKPGRSPQLLIYLASSRASGVPDRFSGSGSDKDFTLKISRVETEDVGVYYCMQGRESPWTFGQGTKVDIKR
B4: MS-85 (antibody, V domains shown)
VH: B3 VH
VL: B3 VL with F2I, D73G, K74T, V90T
B5: MS-82 (antibody, V domains shown)
VH: B3 VH with T87R
VL: B3 VL with V90T
B6: MS-80 (antibody, V domains shown)
VH: B3 VH with W72R
VL: B3 VL with V90T
B7: MS-81 (antibody, V domains shown)
VH: B3 VH with Q82E
VL: B3 VL with V90T
B8: MS-79 (antibody, V domains shown)
VH: B3 VH with D71T
VL: B3 VL with V90T
B9: MS-84 (antibody, V domains shown)
VH: B3 VH with T87R
VL: B3 VL with H9L, S12P, S18P, R47Q, T85A
B10: MS-77 (antibody, V domains shown)
VH: B3 VH with L29F
VL: B3 VL with V90T
B11: MS-83 (antibody, V domains shown)
VH: B3 VH with D113E
VL: B3 VL with V90T
B12: MS-76 (antibody, V domains shown)
VH: B3 VH with N27Y
VL: B3 VL with V90T
B13: MS-75 (antibody, V domains shown)
VH: B3 VH with P25S
VL: B3 VL with V90T
B14: MS-78 (antibody, V domains shown)
VH: B3 VH with Q46E
VL: B3 VL with V90T

Experiments:
Test in all cases: cell-based or functional assay
[1] = biological target: HIV-1 pseudovirus SC05.8C11.2344 (HIV-1)
[2] = biological target: HIV-1 pseudovirus AC10.0.29 (HIV-1)
[3] = biological target: HIV-1 pseudovirus Ce1176_A3 (HIV-1)
HIV-1 pseudovirus 263-8 = HIV-1 pseudovirus 263-8 (HIV-1)
[4] = biological target: HIV-1 pseudovirus 6952.v1.c20 (HIV-1)
[5] = biological target: HIV-1 pseudovirus X1193_c1 (HIV-1)

| Binder | IC50 (neutralization in TZM.bl cells) [1] [µg/mL] | IC80 (neutralization in TZM.bl cells) [1] [µg/mL] | IC50 (neutralization in TZM.bl cells) [2] [µg/mL] | IC80 (neutralization in TZM.bl cells) [2] [µg/mL] | IC50 (neutralization in TZM.bl cells) [3] [µg/mL] | IC80 (neutralization in TZM.bl cells) [3] [µg/mL] | IC50 (neutralization in TZM.bl cells) (HIV-1 pseudovirus 263-8) [µg/mL] | IC80 (neutralization in TZM.bl cells) (HIV-1 pseudovirus 263-8) [µg/mL] | IC50 (neutralization in TZM.bl cells) [4] [µg/mL] | IC80 (neutralization in TZM.bl cells) [4] [µg/mL] | IC50 (neutralization in TZM.bl cells) [5] [µg/mL] | IC80 (neutralization in TZM.bl cells) [5] [µg/mL] |
| --- | --- | --- | --- | --- | --- | --- | --- | --- | --- | --- | --- | --- |
| B1 | 0.461 | 1.62 | 0.041 | 0.206 | 0.035 | 0.581 | 0.01 | 0.032 | 0.222 | 6.99 | 0.085 | 0.327 |
| B2 | 1.62 | 5.39 | 0.107 | 0.741 | 0.366 | 4.25 | 0.009 | 0.05 | 2.55 | > 25 | 0.167 | 0.371 |
| B3 | 0.415 | 1.94 | 0.041 | 0.216 | 0.028 | 0.564 | 0.013 | 0.037 | 0.285 | 15.1 | 0.086 | 0.296 |
| B4 | 0.425 | 1.49 | 0.044 | 0.242 | 0.073 | 1.72 | 0.011 | 0.043 | 0.393 | > 25 | 0.068 | 0.507 |
| B5 | 0.502 | 1.8 | 0.05 | 0.267 | 0.023 | 0.635 | 0.011 | 0.033 | 0.212 | 23 | 0.084 | 0.411 |
| B6 | 0.898 | 3.15 | 0.054 | 0.28 | 1.11 | > 25 | 0.033 | 0.173 | > 25 | > 25 | 0.137 | 0.607 |
| B7 | 0.537 | 2.01 | 0.044 | 0.324 | 0.044 | 0.646 | 0.013 | 0.037 | 0.228 | > 25 | 0.113 | 0.512 |
| B8 | 0.593 | 1.97 | 0.056 | 0.404 | 0.473 | 9.05 | 0.018 | 0.067 | 13.2 | > 25 | 0.109 | 0.365 |
| B9 | 0.481 | 1.74 | 0.052 | 0.257 | 0.018 | 0.567 | 0.006 | 0.03 | 0.237 | 18.2 | 0.058 | 0.285 |
| B10 | 0.516 | 2.41 | 0.036 | 0.311 | 0.067 | 1.12 | 0.012 | 0.033 | 0.236 | 6.74 | 0.109 | 0.398 |
| B11 | 0.381 | 1.88 | 0.038 | 0.259 | 0.029 | 0.405 | 0.007 | 0.05 | 0.126 | 3.09 | 0.061 | 0.308 |
| B12 | 0.587 | 2.57 | 0.047 | 0.368 | 0.082 | 1.63 | 0.015 | 0.053 | 0.844 | > 25 | 0.126 | 0.575 |
| B13 | 0.792 | 3.72 | 0.055 | 0.442 | 0.139 | 2.79 | 0.018 | 0.086 | 0.977 | > 25 | 0.174 | 0.591 |
| B14 | 0.658 | 2.26 | 0.044 | 0.225 | 0.047 | 0.837 | 0.014 | 0.053 | 0.342 | > 25 | 0.126 | 0.452 |
